Source: patent US20120316071A1 (published 2012)

Experiments:
rHuman CD44/Fc Chimera = rHuman CD44/Fc Chimera (human, UniProt P16070 21-220); assay: ECL multispot (MSD) binding assay; antigen spotted on plate, Fab in solution;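 note: purified Fab bound for 1 h at 20 °C, detected with a TAG-labelled antibody, electrochemiluminescence compared with each well's blank, signal-to-blank ratio of at least 4 scored as hit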
[1] = molecular target: T1, rHuman Erythropoietin R/Fc Chimera (human, UniProt P19235 25-250); assay: as above
T1 construct: also called EPO R; EPO R/Fc
T1 sequence (looked up): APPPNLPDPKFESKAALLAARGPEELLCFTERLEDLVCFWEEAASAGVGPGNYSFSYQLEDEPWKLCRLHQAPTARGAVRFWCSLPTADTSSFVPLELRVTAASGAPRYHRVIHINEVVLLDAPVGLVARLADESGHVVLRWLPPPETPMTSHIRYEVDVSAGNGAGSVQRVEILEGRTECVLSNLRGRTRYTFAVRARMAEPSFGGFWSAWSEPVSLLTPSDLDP

rHuman EGF R/Fc Chimera = rHuman EGF R/Fc Chimera (human, UniProt P00533 25-645); assay: as above
rHuman ErbB2/Fc Chimera = rHuman ErbB2/Fc Chimera (human, UniProt P04626 23-652); assay: as above
[2] = molecular target: T2, rHuman P-Cadherin/Fc Chimera (human, UniProt P22223 108-654); assay: as above
T2 construct: Bought from R&D Systems (Cat#861-PC)

[3] = molecular target: rHuman IGF-1 sR (insulin-like growth factor-1 soluble receptor) (human, UniProt P08069 31-932); assay: as above
[4] = molecular target: T3, rHuman Notch-1/Fc Chimera (human, UniProt P46531 19-526); assay: as above
T3 construct: Bought from R&D Systems (Cat#3647-TK)

[5] = molecular target: T4, rHuman HGF R/c-MET/Fc Chimera (human, UniProt P08581 25-932); assay: as above
T4 construct: also called HGF R/Fc
T4 sequence (P08581 25-932, change not shown): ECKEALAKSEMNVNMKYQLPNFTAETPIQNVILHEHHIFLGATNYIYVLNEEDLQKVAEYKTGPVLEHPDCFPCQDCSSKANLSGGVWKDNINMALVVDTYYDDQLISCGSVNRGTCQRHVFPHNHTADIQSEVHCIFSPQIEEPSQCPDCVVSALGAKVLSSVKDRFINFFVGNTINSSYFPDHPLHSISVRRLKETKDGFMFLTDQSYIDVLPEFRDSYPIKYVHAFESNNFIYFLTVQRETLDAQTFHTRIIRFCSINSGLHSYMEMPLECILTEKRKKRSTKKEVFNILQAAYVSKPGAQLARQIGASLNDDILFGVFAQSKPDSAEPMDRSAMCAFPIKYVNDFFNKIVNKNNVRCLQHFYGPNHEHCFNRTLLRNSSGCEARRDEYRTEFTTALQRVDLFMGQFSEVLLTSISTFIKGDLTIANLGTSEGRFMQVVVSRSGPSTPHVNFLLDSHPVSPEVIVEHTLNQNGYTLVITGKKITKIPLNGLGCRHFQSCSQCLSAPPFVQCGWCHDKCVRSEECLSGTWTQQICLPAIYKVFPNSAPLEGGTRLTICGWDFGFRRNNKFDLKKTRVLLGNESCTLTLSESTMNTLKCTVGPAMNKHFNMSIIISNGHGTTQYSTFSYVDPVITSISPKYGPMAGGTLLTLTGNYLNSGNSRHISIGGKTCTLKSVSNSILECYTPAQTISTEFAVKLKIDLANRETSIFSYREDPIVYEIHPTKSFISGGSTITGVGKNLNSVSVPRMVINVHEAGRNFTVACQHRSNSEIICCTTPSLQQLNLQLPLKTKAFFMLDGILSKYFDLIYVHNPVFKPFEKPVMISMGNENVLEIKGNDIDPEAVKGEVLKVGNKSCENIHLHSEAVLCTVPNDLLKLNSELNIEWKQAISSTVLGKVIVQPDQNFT

[6] = molecular target: T5, Recombinant Human DLL4 (delta-like protein 4) (human, UniProt Q9NR61 27-524); assay: ELISA, DLL4 coated on plate, Fab in solution, absorbance at 450 nm
T5 construct: Bought recombinant protein (R&D Systems Cat#1506-D4/CF); also called rHuman DLL4; Delta-like 4

[7] = molecular target: T5, Recombinant Human DLL4 (delta-like …); assay: ECL (MSD) multispot binding assay, DLL4 immobilized, Fab in solution
[8] = molecular target: T6, Recombinant Human DLL4 (R&D Systems Cat#1506-D4/CF) (human, UniProt Q9NR61 27-524); assay: ECL (MSD) binding assay, Fab on immobilized recombinant human DLL4
T6 construct: also called rHuman DLL4; delta-like protein 4

[9] = molecular target: T6, Recombinant Human DLL4 (R&D Systems …); assay: ECL (MSD) multispot binding assay, Fab on immobilized recombinant human DLL4

B1: Fab VH1-46_IGHD6-6*01_IGHJ1*01 S102A/S103P/S104F/H111F (APFF) & L6_IGKJ1*01 S92V (Fab, V domains shown)
VH: QVQLVQSGAEVKKPGASVKVSCKASGYTFTSYYMHWVRQAPGQGLEWMGIINPSGGSTSYAQKFQGRVTMTRDTSTSTVYMELSSLRSEDTAVYYCAREEYAPFSAEYFQFWGQGTLVTVSS
VL: EIVLTQSPATLSLSPGERATLSCRASQSVSSYLAWYQQKPGQAPRLLIYDASNRATGIPARFSGSGSGTDFTLTISSLEPEDFAVYYCQQRVNWPPWTFGQGTKVEIKR
notes: Tested as Fab (CH1 with His6/Flag tags from Plasmid A; kappa CL from Plasmid C); also called APFF / S92V
Which ECL signal (rHuman CD44/Fc Chimera) does the source give for B1 here?
The ECL signal was 331.

And the ECL signal [1]?
The ECL signal was 368.

And the ECL signal (rHuman EGF R/Fc Chimera)?
Its ECL signal is 305.

What about the ECL signal (rHuman ErbB2/Fc Chimera) of the same binder?
Its ECL signal is 246.

What about the ECL signal [2] of the same binder?
Its ECL signal is 390.

And the ECL signal [3]?
Its ECL signal is 237.

And the ECL signal [4]?
The ECL signal was 347.

And the ECL signal [5]?
Its ECL signal is 288.

B2: Fab VH1-46_IGHD6-6*01_IGHJ1*01 S102A/S103P/S104F/H111F (H:APFF) & L6_IGKJ1*01 S76E (Fab, V domains shown)
VH: QVQLVQSGAEVKKPGASVKVSCKASGYTFTSYYMHWVRQAPGQGLEWMGIINPSGGSTSYAQKFQGRVTMTRDTSTSTVYMELSSLRSEDTAVYYCAREEYAPFSAEYFQFWGQGTLVTVSS
VL: EIVLTQSPATLSLSPGERATLSCRASQSVSSYLAWYQQKPGQAPRLLIYDASNRATGIPARFSGSGSGTDFTLTIESLEPEDFAVYYCQQRSNWPPWTFGQGTKVEIKR
notes: Tested as Fab expressed in E. coli; VH was cloned into Plasmid A (CH1 constant region, His6 and Flag tags) and the kappa VL into Plasmid C (kappa CL)
How did the “ELISA (Signal-Noise)” value [6] turn out when B2 was run?
Its value is 0.36.

And the “ECL Signal/Noise” value [7]?
The value was 218.

B3: Fab VH1-46_IGHD6-6*01_IGHJ1*01 S102A/S103P/S104F/H111F (H:APFF) & L6_IGKJ1*01 S76P (Fab, V domains shown)
VH: QVQLVQSGAEVKKPGASVKVSCKASGYTFTSYYMHWVRQAPGQGLEWMGIINPSGGSTSYAQKFQGRVTMTRDTSTSTVYMELSSLRSEDTAVYYCAREEYAPFSAEYFQFWGQGTLVTVSS
VL: EIVLTQSPATLSLSPGERATLSCRASQSVSSYLAWYQQKPGQAPRLLIYDASNRATGIPARFSGSGSGTDFTLTIPSLEPEDFAVYYCQQRSNWPPWTFGQGTKVEIKR
notes: as for B2
What does the source list for B3?
ELISA (Signal-Noise) [6]: 0.29; ECL Signal/Noise [7]: 100

B4: Fab VH1-46_IGHD6-6*01_IGHJ1*01 S102A/S103P/S104F/H111F (H:APFF) & L6_IGKJ1*01 S76N (Fab, V domains shown)
VH: QVQLVQSGAEVKKPGASVKVSCKASGYTFTSYYMHWVRQAPGQGLEWMGIINPSGGSTSYAQKFQGRVTMTRDTSTSTVYMELSSLRSEDTAVYYCAREEYAPFSAEYFQFWGQGTLVTVSS
VL: EIVLTQSPATLSLSPGERATLSCRASQSVSSYLAWYQQKPGQAPRLLIYDASNRATGIPARFSGSGSGTDFTLTINSLEPEDFAVYYCQQRSNWPPWTFGQGTKVEIKR
notes: as for B2
What does the source list for B4?
ELISA (Signal-Noise) [6]: 0.28; ECL Signal/Noise [7]: 118

B5: Fab VH1-46_IGHD6-6*01_IGHJ1*01 S102A/S103P/S104F/H111F (H:APFF) & L6_IGKJ1*01 S76Q (Fab, V domains shown)
VH: QVQLVQSGAEVKKPGASVKVSCKASGYTFTSYYMHWVRQAPGQGLEWMGIINPSGGSTSYAQKFQGRVTMTRDTSTSTVYMELSSLRSEDTAVYYCAREEYAPFSAEYFQFWGQGTLVTVSS
VL: EIVLTQSPATLSLSPGERATLSCRASQSVSSYLAWYQQKPGQAPRLLIYDASNRATGIPARFSGSGSGTDFTLTIQSLEPEDFAVYYCQQRSNWPPWTFGQGTKVEIKR
notes: as for B2
How did the “ELISA (Signal-Noise)” value [6] turn out when B5 was run?
The value was 0.32.

And the “ECL Signal/Noise” value [7]?
Its value is 187.

B6: Fab VH5-51_IGHD5-18*01>3_IGHJ4*01 G100K/G104T (KT) & V3-4_IGLJ1*01 (Fab, V domains shown)
VH: EVQLVQSGAEVKKPGESLKISCKGSGYSFTSYWIGWVRQMPGKGLEWMGIIYPGDSDTRYSPSFQGQVTISADKSISTAYLQWSSLKASDTAMYYCARRKYSYTYDYFDYWGQGTLVTVSS
VL: QTVVTQEPSFSVSPGGTVTLTCGLSSGSVSTSYYPSWYQQTPGQAPRTLIYSTNTRSSGVPDRFSGSILGNKAALTITGAQADDESDYYCVLYMGSGISYVFGTGTKVTVL
notes: Tested as Fab; Fabs were expressed in E. coli from plasmid A (heavy chain CH1, His6 and Flag tags) and plasmid E (lambda CL); also called H:KT & L:wt
Which “ECL signal” value [8] does the source give for B6 here?
The value was 588.

And the “ECL Signal/Blank” value [9]?
Its value is 49.2.
